Substrate in the data set: O=C1C(Cl)=CC(=Nc2ccc(O)cc2)C=C1Cl
The data set is described as follows: purified protein. Format: biochemical, Phanerodontia chrysosporium. To be noted: 500 µM cellobiose, 50 mM sodium acetate pH 4.5, electron acceptor.

Data on one protein can be found in article PMC7789494.

B1: PcCDHTr (Phanerodontia chrysosporium) (protein)
chain: QSASQFTDPTTGFQFTGITDPVHDVTYGFVFPPLATSGAQSTEFIGEVVAPIASKWIGIALGGAMNNDLLLVAWANGNQIVSSTRWATGYVQPTAYTGTATLTTLPETTINSTHWKWVFRCQGCTEWNNGGGIDVTSQGVLAWAFSNVAVDDPSDPQSTFSEHTDFGFFGIDYSTAHSANYQNYLNGDSGNPTTTSTKPTSTSSSVTTGPTVSATPYDYIIVGAGPGGIIAADRLSEAGKKVLLLERGGPSTKQTGGTYVAPWATSSGLTKFDIPGLFESLFTDSNPFWWCKDITVFAGCLVGGGTSVNGALYWYPNDGDFSSSVGWPSSWTNHAPYTSKLSSRLPSTDHPSTDGQRYLEQSFNVVSQLLKGQGYNQATINDNPNYKDHVFGYSAFDFLNGKRAGPVATYLQTALARPNFTFKTNVMVSNVVRNGSQILGVQTNDPTLGPNGFIPVTPKGRVILSAGAFGTSRILFQSGIGPTDMIQTVQSNPTAAAALPPQNQWINLPVGMNAQDNPSINLVFTHPSIDAYENWADVWSNPRPADAAQYLANQSGVFAGASPKLNFWRAYSGSDGFTRYAQGTVRPGAASVNSSLPYNASQIFTITVYLSTGIQSRGRIGIDAALRGTVLTPPWLVNPVDKTVLLQALHDVVSNIGSIPGLTMITPDVTQTLEEYVDAYDPATMNSNHWVSSTTIGSSPQSAVVDSNVKVFGTNNLFIVDAGIIPHLPTGNPQGTLMSAAEQAAAKILALAGGP
notes: full two-domain flavocytochrome, native signal peptide (cleaved), untagged, secreted by Trichoderma reesei delta-xyr1; 83 kDa by SDS-PAGE
Regarding B1, the Km stood at 4.31 ± 0.11 µM, the turnover number (kcat) was determined as 24.4 ± 0.2 s⁻¹ and the kcat/Km turned out to be 5.66e+06 ± 159000 M⁻¹ s⁻¹.
